Data set [1] addresses T1, RNA polymerase II;TBP (TATA-binding protein);TFIIB;TFIIF (human (HeLa cells);human;human;human, UniProt P24928;P30876;P19387;O15514;P19388;P61218;P62487;P52434;P36954;P62875;P52435;P53 …, |||). Nature of the data set: single-molecule TIRF colocalization, immobilized Pol II.
For data set [2], the target named is T1, RNA polymerase II;TBP (TATA-binding …). The data set can be described thus: EMSA. Background: A gel shift assay detects complexes by their altered migration in electrophoresis.
Data set [3] addresses T2, RNA polymerase II (human (HeLa cells), UniProt P24928;P30876;P19387;O15514;P19388;P61218;P62487;P52434;P36954;P62875;P52435;P53 …). The data set can be described thus: EMSA.
Data set [4] concerns the target T1, RNA polymerase II;TBP (TATA-binding …). Nature of the data set: single-molecule TIRF colocalization, immobilized Pol II. The source holds these as a separate data set.
Data set [5] has as its target T2, RNA polymerase II. The data set is described as above.

T1 sequence (P20226 whole entry, chain 13 of 2): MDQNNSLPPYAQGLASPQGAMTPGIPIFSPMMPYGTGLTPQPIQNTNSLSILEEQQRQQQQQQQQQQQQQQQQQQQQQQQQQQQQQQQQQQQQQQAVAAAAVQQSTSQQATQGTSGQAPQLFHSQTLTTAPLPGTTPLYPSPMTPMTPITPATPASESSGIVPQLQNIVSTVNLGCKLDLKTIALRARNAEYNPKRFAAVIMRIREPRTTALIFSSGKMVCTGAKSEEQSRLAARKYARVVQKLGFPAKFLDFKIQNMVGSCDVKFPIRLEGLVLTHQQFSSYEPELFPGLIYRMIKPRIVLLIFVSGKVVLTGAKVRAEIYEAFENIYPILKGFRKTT
T1 sequence (Q00403 whole entry, chain 14 of 2, further chain): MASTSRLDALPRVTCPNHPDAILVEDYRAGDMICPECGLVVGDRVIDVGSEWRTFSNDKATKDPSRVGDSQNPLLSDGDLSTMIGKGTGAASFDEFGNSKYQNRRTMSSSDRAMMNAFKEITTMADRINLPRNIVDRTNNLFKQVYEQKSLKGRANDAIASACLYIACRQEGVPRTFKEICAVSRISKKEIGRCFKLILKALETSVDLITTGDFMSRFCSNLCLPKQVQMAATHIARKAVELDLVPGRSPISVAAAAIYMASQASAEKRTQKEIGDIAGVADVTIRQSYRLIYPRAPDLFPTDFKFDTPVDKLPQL

B1: 18 bp TATA DNA (dsDNA)
DNA 1: CGTCCCTTTTATAGCCTG
DNA 2: CAGGCTATAAAAGGGACG
With B1, the binding result in data set [1] is given as “binds”.

B2: AdML three-piece heteroduplex (-40 to +37), Cy3/Cy5, quencher (dsDNA)
DNA 1: CCTGAGGTTAGTGTGAGTAGTGATTAAAGATAGTGATGAGGACGAACGCGCCCCCACCCCCTTTTATAGCCCCCCTT
DNA 2: AAGGGGGGCTATAAAAGGGGGTGGGGGCGCGAAGCAGGAGTAGACTATCTTTAATCACTA
DNA 3: CTCACACTAACCTCAGG
As to B2, the binding result (in data set [2]; with RNA polymerase II [3]) was “binds” throughout.

B3: AdML three-piece heteroduplex (-40 to +37), Cy3/Cy5, no quencher, no biotin (dsDNA)
DNA 1: B2 DNA 1
DNA 2: B2 DNA 2
DNA 3: CTCACACTAACCTCAGG
For the molecule B3, the binding result (in data set [4]; with RNA polymerase II [5]) was “binds” each time.

The values above are taken from article PMC5009721.
